Here are results for two molecules from PMC10397247.

Common to all, as to experiment: two-hybrid library CCNG1;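 also: natural log of median RNA to DNA barcode read ratio; higher means stronger binding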
Assay [1] addresses T1, 4H2473-bA.
T1 chain: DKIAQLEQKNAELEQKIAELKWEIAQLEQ

Assay [2] deals with T2, 4H3057-bA.
T2 chain: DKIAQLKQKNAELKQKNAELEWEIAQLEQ

Assay [3] addresses T3, 4H2438-bA.
T3 chain: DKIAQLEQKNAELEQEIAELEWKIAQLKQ

For assay [4], the target named is T4, 4H492-bA.
T4 chain: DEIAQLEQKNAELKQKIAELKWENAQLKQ

For assay [5], the target named is T5, 4H2503-bA.
T5 chain: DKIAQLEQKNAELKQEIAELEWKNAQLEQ

Assay [6] deals with T6, 4H2717-bA.
T6 chain: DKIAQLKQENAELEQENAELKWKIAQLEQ

In assay [7] the target is T7, 4H477-bA.
T7 chain: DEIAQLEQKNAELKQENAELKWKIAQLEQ

Assay [8] has as its target T8, 4H2134-bA.
T8 chain: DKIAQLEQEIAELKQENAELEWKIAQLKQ

In assay [9] the target is T9, 4H348-bA.
T9 chain: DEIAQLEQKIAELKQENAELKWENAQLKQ

Assay [10] addresses T10, 4H2915-bA.
T10 chain: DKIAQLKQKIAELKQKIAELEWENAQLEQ

The target in assay [11] is T11, 4H2143-bA.
T11 chain: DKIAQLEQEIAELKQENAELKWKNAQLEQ

Assay [12] concerns the target T12, 4H2692-bA.
T12 chain: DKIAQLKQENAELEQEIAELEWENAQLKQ

The target in assay [13] is T13, 4H40-bA.
T13 chain: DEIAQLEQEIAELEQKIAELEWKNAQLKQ

Assay [14] deals with T14, 4H2223-bA.
T14 chain: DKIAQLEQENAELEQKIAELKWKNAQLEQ

Assay [15] concerns the target T15, 4H182-bA.
T15 chain: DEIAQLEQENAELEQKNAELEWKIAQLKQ

Assay [16] deals with T16, 4H319-bA.
T16 chain: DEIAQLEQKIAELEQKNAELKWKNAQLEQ

Assay [17] has as its target T17, 4H741-bA.
T17 chain: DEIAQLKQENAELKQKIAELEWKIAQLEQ

Assay [18] addresses T18, 4H2839-bA.
T18 chain: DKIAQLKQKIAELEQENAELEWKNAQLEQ

Assay [19] has as its target T19, 4H2588-bA.
T19 chain: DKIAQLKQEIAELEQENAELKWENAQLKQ

Assay [20] addresses T20, 4H3277-bA.
T20 chain: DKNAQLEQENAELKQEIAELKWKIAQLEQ

Assay [21] concerns the target T21, 4H932-bH.
T21 chain: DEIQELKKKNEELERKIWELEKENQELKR

In assay [22] the target is T22, O1-bP.
T22 chain: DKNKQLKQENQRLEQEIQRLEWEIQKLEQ

For assay [23], the target named is T23, 4H949-bH.
T23 chain: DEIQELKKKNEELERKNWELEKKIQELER

For the molecule DEIAQLEQENAELEQKNAELEWKIAQLKQ [4H182-bA], the interaction score was -0.132 in assay [1]; 2.13 in assay [2]; -0.622 in assay [3]; -0.651 in [4]; -0.357 in assay [5]; 0.261 in [6]. Further, the interaction score in assay [7] is -0.804; in assay [8], -0.497; in assay [9], -1.35; in [10], 0.668; in assay [11] it was -0.647; in assay [12], 0.136. The interaction score in assay [13] was -1.06; in assay [14], -0.693; in assay [15], -0.0793; in [16], -0.41; in [17] it was -0.573; in [18], 0.49. Besides, the interaction score in [19] is 0.365; in assay [20], -0.0929.
For DEIQELKKKNEELERKIWELEKENQELKR [4H932-bH], the figures for the interaction score in assay [21], in [22] and in assay [23] were -0.509, -1.96 and -0.517, respectively.
